The results in this text go back to US20090068679A1.

For assay [1], the target named is recombinant human PlGF (R&D Systems, Catalog No. 264-PG/CF) (human) (UniProt P49763). Kind of assay: sandwich ELISA: mAb coated 3 ug/ml; PlGF 25 ng/ml; anti-PlGF-POD.
Assay [2] shares this target. Kind of assay: sandwich ELISA: mAb coated 3 ug/ml; PlGF 50 ng/ml; anti-PlGF-POD.
The target is the same in assay [3]. Kind of assay: sandwich ELISA: mAb coated 3 ug/ml; PlGF 0.78 ng/ml; anti-PlGF-POD.
Assay [4] has the same target. In words: sandwich ELISA: mAb coated 3 ug/ml; PlGF 1.56 ng/ml; anti-PlGF-POD.
For assay [5] the target is unchanged. Kind of assay: sandwich ELISA: mAb coated 3 ug/ml; PlGF 12.5 ng/ml; anti-PlGF-POD.
Assay [6] shares this target. Kind of assay: sandwich ELISA: mAb coated 3 ug/ml; PlGF 3.13 ng/ml; anti-PlGF-POD.
Assay [7] has the same target. In words: sandwich ELISA: mAb coated 3 ug/ml; PlGF 6.25 ng/ml; anti-PlGF-POD.
Assay [8] has the same target. Kind of assay: sandwich ELISA: mAb 0.1 ug/ml on anti-mouse IgG plate, PlGF 0.1 ug/ml, anti-PlGF-POD.
Assay [9] has the same target. Kind of assay: sandwich ELISA: mAb 1.0 ug/ml on anti-mouse IgG plate, PlGF 0.1 ug/ml, anti-PlGF-POD.
The target in assay [10] is P/GF/sFlt-1 complex (gP/GF) (human) (UniProt P49763). In words: ELISA: PlGF 1 ug/ml on plate-captured Flt-1/Fc 1 ug/ml; mAb 0.1 ug/ml; anti-mouse IgG-POD.
Assay [11] shares this target. Kind of assay: ELISA: PlGF 1 ug/ml on plate-captured Flt-1/Fc 1 ug/ml; mAb 1.0 ug/ml; anti-mouse IgG-POD.
For assay [12] the target is unchanged. In words: sandwich ELISA: mAb coated 3 ug/ml; PlGF 25 + Flt-1/Fc 400 (ng/ml) pre-incubated; anti-VEGF R1-POD.
Assay [13] has the same target. In words: sandwich ELISA: mAb coated 3 ug/ml; PlGF 0.39 + Flt-1/Fc 400 (ng/ml) pre-incubated; anti-VEGF R1-POD.
Assay [14] shares this target. Kind of assay: sandwich ELISA: mAb coated 3 ug/ml; PlGF 0.78 + Flt-1/Fc 400 (ng/ml) pre-incubated; anti-VEGF R1-POD.
For assay [15] the target is unchanged. Kind of assay: sandwich ELISA: mAb coated 3 ug/ml; PlGF 1.56 + Flt-1/Fc 400 (ng/ml) pre-incubated; anti-VEGF R1-POD.
Assay [16] has the same target. Kind of assay: sandwich ELISA: mAb coated 3 ug/ml; PlGF 12.5 + Flt-1/Fc 400 (ng/ml) pre-incubated; anti-VEGF R1-POD.
The target is the same in assay [17]. In words: sandwich ELISA: mAb coated 3 ug/ml; PlGF 3.13 + Flt-1/Fc 400 (ng/ml) pre-incubated; anti-VEGF R1-POD.
Assay [18] has the same target. In words: sandwich ELISA: mAb coated 3 ug/ml; PlGF 6.25 + Flt-1/Fc 400 (ng/ml) pre-incubated; anti-VEGF R1-POD.

On to antibody MAB264 from R&D Systems, for which the Extinction at 450 nm in assay [1] was determined as 1.47; in assay [2] it was 2.5; in [3], 0.05; in [4] it was 0.081; in [5], 0.885; in assay [6], 0.232. For the same substance, the Extinction at 450 nm in [7] came to 0.468; in assay [8], 1.9; in assay [9], 2.5; in assay [10] it was 0.217; in [11] it was 0.691; in [12] it was 2.19. Also, the Extinction at 450 nm was 0.094 in assay [13]; 0.146 in assay [14]; 0.272 in assay [15]; 1.61 in [16]; 0.529 in assay [17]; 0.883 in assay [18].
